Data from patent US20220049019A1.

Key:
FcγRIIIa = FcγRIIIa (UniProt P08637); test: competitive TR-FRET
FcγRIIb receptor [1] = target: FcγRIIb receptor (UniProt P31994); test: competitive TR-FRET
FcγRIIa = FcγRIIa (UniProt P12318); test: competitive TR-FRET
FcγRIIb receptor [2] = target: FcγRIIb receptor (UniProt P31994); test: cell based competitive TR-FRET (CisBio); displacement of a fluorescently labeled antibody from the cell surface receptor

EC50 (FcγRIIIa): 26700 pM
EC50 (FcγRIIb receptor [1]): 16.5 pM
EC50 (FcγRIIa): 126 pM
fold increase in binding against the Construct 4 (SIF3) control (FcγRIIb receptor [2]): > 300 fold
Substance: Construct 4-FcγRIIb+ mutant (from UniProt P01857 27-328; P0DOX5 223-448)
